Experimental data: patent US20140087995A1 (published 2014)
Blank lines part the entries; values can stand above or below the binder they belong to. Numbered stars: 1 amine (or outer) side, 2 acyl side, 3 side chain; on linkers, the order of the positions; unused ones are H or OH. Bridge positions count the residues as written; N and C are the ends. Side chains are listed from the residue outwards. Ends that are not written are not given here. * marks the point of attachment. C20 diacid = O=C(O)CCCCCCCCCCCCCCCCCCC(=O)*; γGlu = O=C(O)[C@H](CCC(=O)[*:2])N[*:1]

Tests used:
[1] = molecular target: T1, human calcitonin receptor (human, UniProt P30988 25-474); test: ratio of IC50 at human calcitonin receptor to IC50 at human amylin receptor (SPA competition assays)
T1 construct: whole, on cells; also called hCTR; hCT
T1 sequence (looked up): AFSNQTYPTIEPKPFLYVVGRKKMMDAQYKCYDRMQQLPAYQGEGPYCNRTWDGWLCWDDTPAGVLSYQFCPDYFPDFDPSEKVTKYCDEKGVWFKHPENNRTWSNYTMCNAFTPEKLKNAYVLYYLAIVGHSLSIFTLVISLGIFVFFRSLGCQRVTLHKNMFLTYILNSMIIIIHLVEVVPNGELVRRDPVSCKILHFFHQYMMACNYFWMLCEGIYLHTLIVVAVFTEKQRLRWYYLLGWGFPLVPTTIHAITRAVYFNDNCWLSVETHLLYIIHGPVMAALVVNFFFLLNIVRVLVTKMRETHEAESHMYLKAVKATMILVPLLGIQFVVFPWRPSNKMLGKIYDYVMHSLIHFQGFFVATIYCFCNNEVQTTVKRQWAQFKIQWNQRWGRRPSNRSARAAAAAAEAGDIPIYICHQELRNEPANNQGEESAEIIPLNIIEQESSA
Procedure, shortened: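 IC₅₀ values were derived by one-site competition analysis of SPA counts. Cell membranes (35 ng/μL) with SPA beads were incubated with test compounds for 120 min at 25° C in Hepes buffer, pH 7.4, containing CaCl2, MgCl₂, OA and Tween20.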

[2] = molecular target: T1, human calcitonin receptor; test: SPA competition against 125I-calcitonin, membranes of BHK cells with human calcitonin receptor (Assay VII)
Procedure, shortened: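 BHK hCTR membranes 35 ng/μL + SPA beads 0.05 mg/well; buffer 50 mM Hepes pH 7.4, 1 mM CaCl2, 5 mM MgCl₂, 0.1% OA, 0.02% Tween20. 120 min, 25° C., shaking. Scintillation count; IC50 by one-site binding competition.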

B1: N^ε1-[(4S)-4-carboxy-4-(19-carboxynonadecanoylamino)butanoyl]-[Glu14,Arg17,Pro21,Pro27,His35]-h-amylin (peptide)
peptide: K([γGlu-C20 diacid])CNTATCATQRLAEFLRHSSPNFGAIPSSTNVGSHTY-NH2
modifications: disulfide 2-7; N-terminus assumed
SMILES: CC[C@H](C)[C@H](NC(=O)[C@H](C)NC(=O)CNC(=O)[C@H](Cc1ccccc1)NC(=O)[C@H](CC(N)=O)NC(=O)[C@@H]1CCCN1C(=O)[C@H](CO)NC(=O)[C@H](CO)NC(=O)[C@H](Cc1c[nH]cn1)NC(=O)[C@H](CCCNC(=N)N)NC(=O)[C@H](CC(C)C)NC(=O)[C@H](Cc1ccccc1)NC(=O)[C@H](CCC(=O)O)NC(=O)[C@H](C)NC(=O)[C@H](CC(C)C)NC(=O)[C@H](CCCNC(=N)N)NC(=O)[C@H](CCC(N)=O)NC(=O)[C@@H](NC(=O)[C@H](C)NC(=O)[C@@H]1CSSC[C@H](NC(=O)[C@@H](N)CCCCNC(=O)CC[C@H](NC(=O)CCCCCCCCCCCCCCCCCCC(=O)O)C(=O)O)C(=O)N[C@@H](CC(N)=O)C(=O)N[C@@H]([C@@H](C)O)C(=O)N[C@@H](C)C(=O)N[C@@H]([C@@H](C)O)C(=O)N1)[C@@H](C)O)C(=O)N1CCC[C@H]1C(=O)N[C@@H](CO)C(=O)N[C@@H](CO)C(=O)N[C@H](C(=O)N[C@@H](CC(N)=O)C(=O)N[C@H](C(=O)NCC(=O)N[C@@H](CO)C(=O)N[C@@H](Cc1c[nH]cn1)C(=O)N[C@H](C(=O)N[C@@H](Cc1ccc(O)cc1)C(N)=O)[C@@H](C)O)C(C)C)[C@@H](C)O
Ratio hCT/hAmylin binding [1]: 26.4
IC50 [2]: 26.1 nM

B2: N^ε1-[(4S)-4-carboxy-4-[[(4S)-4-carboxy-4-(19-carboxynonadecanoylamino)butanoyl]amino]butanoyl]-[Asp14,Arg17,Pro21,Pro27,Pro34,Glu35]-h-amylin (peptide)
peptide: K([γGlu-γGlu-C20 diacid])CNTATCATQRLADFLRHSSPNFGAIPSSTNVGPETY-NH2
modifications: disulfide 2-7
Ratio hCT/hAmylin binding [1]: 49.8
IC50 [2]: 8.56 nM

B4: N^ε1-[(4S)-4-carboxy-4-[[(4S)-4-carboxy-4-(19-carboxynonadecanoylamino)butanoyl]amino]butanoyl]-[Arg17,Pro21,Pro27,Pro31,Pro34,Arg35]-h-amylin (peptide)
peptide: K([γGlu-γGlu-C20 diacid])CNTATCATQRLANFLRHSSPNFGAIPSSTPVGPRTY-NH2
modifications: disulfide 2-7; N-terminus assumed
SMILES: CC[C@H](C)[C@H](NC(=O)[C@H](C)NC(=O)CNC(=O)[C@H](Cc1ccccc1)NC(=O)[C@H](CC(N)=O)NC(=O)[C@@H]1CCCN1C(=O)[C@H](CO)NC(=O)[C@H](CO)NC(=O)[C@H](Cc1c[nH]cn1)NC(=O)[C@H](CCCNC(=N)N)NC(=O)[C@H](CC(C)C)NC(=O)[C@H](Cc1ccccc1)NC(=O)[C@H](CC(N)=O)NC(=O)[C@H](C)NC(=O)[C@H](CC(C)C)NC(=O)[C@H](CCCNC(=N)N)NC(=O)[C@H](CCC(N)=O)NC(=O)[C@@H](NC(=O)[C@H](C)NC(=O)[C@@H]1CSSC[C@H](NC(=O)[C@@H](N)CCCCNC(=O)CC[C@H](NC(=O)CC[C@H](NC(=O)CCCCCCCCCCCCCCCCCCC(=O)O)C(=O)O)C(=O)O)C(=O)N[C@@H](CC(N)=O)C(=O)N[C@@H]([C@@H](C)O)C(=O)N[C@@H](C)C(=O)N[C@@H]([C@@H](C)O)C(=O)N1)[C@@H](C)O)C(=O)N1CCC[C@H]1C(=O)N[C@@H](CO)C(=O)N[C@@H](CO)C(=O)N[C@H](C(=O)N1CCC[C@H]1C(=O)N[C@H](C(=O)NCC(=O)N1CCC[C@H]1C(=O)N[C@@H](CCCNC(=N)N)C(=O)N[C@H](C(=O)N[C@@H](Cc1ccc(O)cc1)C(N)=O)[C@@H](C)O)C(C)C)[C@@H](C)O
Ratio hCT/hAmylin binding [1]: 48.6
IC50 [2]: 42.8 nM

B5: N^ε1-[(4S)-4-carboxy-4-[[(4S)-4-carboxy-4-(19-carboxynonadecanoylamino)butanoyl]amino]butanoyl]-[Asp14,Arg17,Pro21,Pro27,Pro34,Arg35]-h-amylin (peptide)
peptide: K([γGlu-γGlu-C20 diacid])CNTATCATQRLADFLRHSSPNFGAIPSSTNVGPRTY-NH2
modifications: disulfide 2-7; N-terminus assumed
SMILES: CC[C@H](C)[C@H](NC(=O)[C@H](C)NC(=O)CNC(=O)[C@H](Cc1ccccc1)NC(=O)[C@H](CC(N)=O)NC(=O)[C@@H]1CCCN1C(=O)[C@H](CO)NC(=O)[C@H](CO)NC(=O)[C@H](Cc1c[nH]cn1)NC(=O)[C@H](CCCNC(=N)N)NC(=O)[C@H](CC(C)C)NC(=O)[C@H](Cc1ccccc1)NC(=O)[C@H](CC(=O)O)NC(=O)[C@H](C)NC(=O)[C@H](CC(C)C)NC(=O)[C@H](CCCNC(=N)N)NC(=O)[C@H](CCC(N)=O)NC(=O)[C@@H](NC(=O)[C@H](C)NC(=O)[C@@H]1CSSC[C@H](NC(=O)[C@@H](N)CCCCNC(=O)CC[C@H](NC(=O)CC[C@H](NC(=O)CCCCCCCCCCCCCCCCCCC(=O)O)C(=O)O)C(=O)O)C(=O)N[C@@H](CC(N)=O)C(=O)N[C@@H]([C@@H](C)O)C(=O)N[C@@H](C)C(=O)N[C@@H]([C@@H](C)O)C(=O)N1)[C@@H](C)O)C(=O)N1CCC[C@H]1C(=O)N[C@@H](CO)C(=O)N[C@@H](CO)C(=O)N[C@H](C(=O)N[C@@H](CC(N)=O)C(=O)N[C@H](C(=O)NCC(=O)N1CCC[C@H]1C(=O)N[C@@H](CCCNC(=N)N)C(=O)N[C@H](C(=O)N[C@@H](Cc1ccc(O)cc1)C(N)=O)[C@@H](C)O)C(C)C)[C@@H](C)O
notes: also called compound 130
Ratio hCT/hAmylin binding [1]: 280
IC50 [2]: 127 nM

B6: N^ε1-[(4S)-4-carboxy-4-(19-carboxynonadecanoylamino)butanoyl]-[Glu14,Arg17,Pro21,Pro27,Pro34,His35]-h-amylin (peptide)
peptide: K([γGlu-C20 diacid])CNTATCATQRLAEFLRHSSPNFGAIPSSTNVGPHTY-NH2
modifications: disulfide 2-7
Ratio hCT/hAmylin binding [1]: 21.2
IC50 [2]: 3.8 nM

B8: N^ε1-[(4S)-4-carboxy-4-[[(4S)-4-carboxy-4-(19-carboxynonadecanoylamino)butanoyl]amino]butanoyl]-[Glu14,Arg17,Pro21,Pro27,Pro34,His35]-h-amylin (peptide)
peptide: K([γGlu-γGlu-C20 diacid])CNTATCATQRLAEFLRHSSPNFGAIPSSTNVGPHTY-NH2
modifications: disulfide 2-7 (inferred)
Ratio hCT/hAmylin binding [1]: 27.3
IC50 [2]: 10.3 nM

The next binders have a lower IC50 [2] than those just listed; values first:

Ratio hCT/hAmylin binding [1]: 18
IC50 [2]: 2.73 nM
B3: N^ε1-[(4S)-4-carboxy-4-[[(4S)-4-carboxy-4-(19-carboxynonadecanoylamino)butanoyl]amino]butanoyl]-[Glu14,Arg17,Pro21,Pro27,Pro34,Phe37]-h-amylin (peptide)
peptide: K([γGlu-γGlu-C20 diacid])CNTATCATQRLAEFLRHSSPNFGAIPSSTNVGPNTF-NH2
modifications: disulfide 2-7; N-terminus assumed
SMILES: CC[C@H](C)[C@H](NC(=O)[C@H](C)NC(=O)CNC(=O)[C@H](Cc1ccccc1)NC(=O)[C@H](CC(N)=O)NC(=O)[C@@H]1CCCN1C(=O)[C@H](CO)NC(=O)[C@H](CO)NC(=O)[C@H](Cc1c[nH]cn1)NC(=O)[C@H](CCCNC(=N)N)NC(=O)[C@H](CC(C)C)NC(=O)[C@H](Cc1ccccc1)NC(=O)[C@H](CCC(=O)O)NC(=O)[C@H](C)NC(=O)[C@H](CC(C)C)NC(=O)[C@H](CCCNC(=N)N)NC(=O)[C@H](CCC(N)=O)NC(=O)[C@@H](NC(=O)[C@H](C)NC(=O)[C@@H]1CSSC[C@H](NC(=O)[C@@H](N)CCCCNC(=O)CC[C@H](NC(=O)CC[C@H](NC(=O)CCCCCCCCCCCCCCCCCCC(=O)O)C(=O)O)C(=O)O)C(=O)N[C@@H](CC(N)=O)C(=O)N[C@@H]([C@@H](C)O)C(=O)N[C@@H](C)C(=O)N[C@@H]([C@@H](C)O)C(=O)N1)[C@@H](C)O)C(=O)N1CCC[C@H]1C(=O)N[C@@H](CO)C(=O)N[C@@H](CO)C(=O)N[C@H](C(=O)N[C@@H](CC(N)=O)C(=O)N[C@H](C(=O)NCC(=O)N1CCC[C@H]1C(=O)N[C@@H](CC(N)=O)C(=O)N[C@H](C(=O)N[C@@H](Cc1ccccc1)C(N)=O)[C@@H](C)O)C(C)C)[C@@H](C)O

Ratio hCT/hAmylin binding [1]: 24.8
IC50 [2]: 2.04 nM
B7: N^ε1-[(4S)-4-carboxy-4-(19-carboxynonadecanoylamino)butanoyl]-[His14,Arg17,Pro21,Pro27,Pro31,Pro34]-h-amylin (peptide)
peptide: K([γGlu-C20 diacid])CNTATCATQRLAHFLRHSSPNFGAIPSSTPVGPNTY-NH2
modifications: disulfide 2-7; N-terminus assumed
SMILES: CC[C@H](C)[C@H](NC(=O)[C@H](C)NC(=O)CNC(=O)[C@H](Cc1ccccc1)NC(=O)[C@H](CC(N)=O)NC(=O)[C@@H]1CCCN1C(=O)[C@H](CO)NC(=O)[C@H](CO)NC(=O)[C@H](Cc1c[nH]cn1)NC(=O)[C@H](CCCNC(=N)N)NC(=O)[C@H](CC(C)C)NC(=O)[C@H](Cc1ccccc1)NC(=O)[C@H](Cc1c[nH]cn1)NC(=O)[C@H](C)NC(=O)[C@H](CC(C)C)NC(=O)[C@H](CCCNC(=N)N)NC(=O)[C@H](CCC(N)=O)NC(=O)[C@@H](NC(=O)[C@H](C)NC(=O)[C@@H]1CSSC[C@H](NC(=O)[C@@H](N)CCCCNC(=O)CC[C@H](NC(=O)CCCCCCCCCCCCCCCCCCC(=O)O)C(=O)O)C(=O)N[C@@H](CC(N)=O)C(=O)N[C@@H]([C@@H](C)O)C(=O)N[C@@H](C)C(=O)N[C@@H]([C@@H](C)O)C(=O)N1)[C@@H](C)O)C(=O)N1CCC[C@H]1C(=O)N[C@@H](CO)C(=O)N[C@@H](CO)C(=O)N[C@H](C(=O)N1CCC[C@H]1C(=O)N[C@H](C(=O)NCC(=O)N1CCC[C@H]1C(=O)N[C@@H](CC(N)=O)C(=O)N[C@H](C(=O)N[C@@H](Cc1ccc(O)cc1)C(N)=O)[C@@H](C)O)C(C)C)[C@@H](C)O

Ratio hCT/hAmylin binding [1]: 22.6
IC50 [2]: 1.56 nM
B9: N^ε1-[(4S)-4-carboxy-4-[[(4S)-4-carboxy-4-(19-carboxynonadecanoylamino)butanoyl]amino]butanoyl]-[Glu14,Arg17,Pro21,Pro31,Pro34,Glu35]-h-amylin (peptide)
peptide: K([γGlu-γGlu-C20 diacid])CNTATCATQRLAEFLRHSSPNFGAILSSTPVGPETY-NH2
modifications: disulfide 2-7 (inferred)
